Experimental data from patent US20240376195A1 (BEIGENE, published 2024).

Columns and labels:
his-tagged human NKp30 [1] = molecular target: T1, his-tagged human NKp30 (human, UniProt O14931 19-135); assay: SPR, antibody captured on anti-human Fc surface
T1 construct: Analyte of the SPR assay; not shown: his tag
T1 sequence: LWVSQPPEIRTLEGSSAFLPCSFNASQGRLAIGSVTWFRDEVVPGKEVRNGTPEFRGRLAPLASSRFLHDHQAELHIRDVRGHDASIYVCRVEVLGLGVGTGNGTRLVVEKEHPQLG
Description: (§1) Further engineered versions of humanized monoclonal antibodies were derived from the mutation process described as above and characterized in detail. […] For affinity determination, antibodies were captured by anti-human Fc surface, and used in the affinity assay based on surface plasmon resonance (SPR) technology. All the humanization antibodies shown above were also confirmed for functional activities on primary human immune cells isolated from healthy donors (described in Example 7 below).

his-tagged human NKp30 [2] = molecular target: T1, his-tagged human NKp30; assay: SPR, antibody captured on anti-human Fc surface; NKp30 analyte not named in Example 4
Description: as §1

[3] = molecular target: T2, full-length human NKp30 on NK92MI cells (human, UniProt O14931 19-201); assay: flow cytometry on live NK92MI cells over-expressing human NKp30, goat anti-human IgG detection
T2 construct: Full-length human NKp30 over-expressed on NK92MI cells; also called huNKp30; native NKp30
T2 sequence: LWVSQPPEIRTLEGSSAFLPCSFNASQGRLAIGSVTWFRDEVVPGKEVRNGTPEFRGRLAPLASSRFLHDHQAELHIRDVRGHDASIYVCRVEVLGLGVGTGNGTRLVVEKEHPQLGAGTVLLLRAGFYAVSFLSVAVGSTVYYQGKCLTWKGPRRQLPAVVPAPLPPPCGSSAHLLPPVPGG
Method: To evaluate the binding activity of anti-NKp30 antibodies to native NKp30 on living cells, NK92MI cells were transfected to over-express human NKp30. Live NK92mi/NKp30 expressing cells were seeded in 96-well plates and were incubated with a serial dilution of anti-NKp30 antibodies. Goat anti-Human IgG was used as secondary antibody to detect antibody binding to the cell surface. EC₅₀ values for dose-dependent binding to human native NKp30 were determined by fitting the dose-response data to the four-parameter logistic model with GraphPad Prism™.

W20A = molecular target: T3, W20A; assay: ELISA; 50 ng Nkp30-Fc variant coated, antibody at 20 nM, HRP-linked secondary antibody; signal relative to wild type
T3 construct: single alanine mutant; also called mutant Nkp30-Fc W20A
T3 Fc fusion chain: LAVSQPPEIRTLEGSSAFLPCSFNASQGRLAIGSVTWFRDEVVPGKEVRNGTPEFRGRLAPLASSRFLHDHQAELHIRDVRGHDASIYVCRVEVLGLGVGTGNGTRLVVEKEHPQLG
Method: (§2) To characterize the binding epitope of BGA1833, 10 amino acid residues of NKp30 were mutated to alanine individually to generate 10 single-mutation NKp30 variants based upon the information from the crystal structure of NKp30 reported previously (Li et al., J Exp Med. 2011 208:703-714). The mutant NKp30 proteins along with the wild-type NKp30 protein were analyzed for their recognition and binding by BGA1833. Another humanized anti-NKp30 antibody, BGA1913, was also analyzed in the same ELISA assay for comparison. In this assay, 50 ng each of wild-type or mutant Nkp30-Fc was coated in an ELISA plate. After blocking, 100 μl of BGA1833 or BGA1913 antibody at a concentration of 20 nM was added to the plate and the binding signal of each antibody was detected by HRP-linked secondary antibody. All ELISA results were normalized using the mean values of the ELISA reading of wild type NKp30-Fc binding signal as the standard. To simplify data analysis, if an antibody's ELISA binding signal for a specific mutant NKp30 dropped to or below 25%, then the amino acid at that site was considered critical to the epitope.

S52A = molecular target: T4, S52A; assay: as above
T4 construct: single alanine mutant; also called mutant Nkp30-Fc S52A
T4 Fc fusion chain: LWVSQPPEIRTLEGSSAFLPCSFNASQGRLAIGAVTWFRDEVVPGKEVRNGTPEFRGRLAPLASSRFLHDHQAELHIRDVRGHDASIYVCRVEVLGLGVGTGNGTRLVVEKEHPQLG
Method: as §2

E65A = molecular target: T5, E65A; assay: as above
T5 construct: single alanine mutant; also called mutant Nkp30-Fc E65A
T5 Fc fusion chain: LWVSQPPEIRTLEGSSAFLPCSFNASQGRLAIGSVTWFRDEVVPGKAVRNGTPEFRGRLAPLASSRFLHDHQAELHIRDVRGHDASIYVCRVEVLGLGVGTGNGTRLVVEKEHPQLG
Method: as §2

R109A = molecular target: T6, R109A; assay: as above
T6 construct: single alanine mutant; also called mutant Nkp30-Fc R109A
T6 Fc fusion chain: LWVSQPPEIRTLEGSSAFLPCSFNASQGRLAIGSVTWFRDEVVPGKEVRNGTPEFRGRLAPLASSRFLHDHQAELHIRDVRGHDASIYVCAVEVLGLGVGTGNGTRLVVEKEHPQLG
Method: as §2

E111A = molecular target: T7, E111A; assay: as above
T7 construct: single alanine mutant; also called mutant Nkp30-Fc E111A
T7 Fc fusion chain: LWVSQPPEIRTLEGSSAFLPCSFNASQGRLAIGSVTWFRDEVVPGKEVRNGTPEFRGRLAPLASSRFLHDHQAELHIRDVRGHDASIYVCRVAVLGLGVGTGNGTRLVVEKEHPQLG
Method: as §2

V117A = molecular target: T8, V117A; assay: as above
T8 construct: single alanine mutant; also called mutant Nkp30-Fc V117A
T8 Fc fusion chain: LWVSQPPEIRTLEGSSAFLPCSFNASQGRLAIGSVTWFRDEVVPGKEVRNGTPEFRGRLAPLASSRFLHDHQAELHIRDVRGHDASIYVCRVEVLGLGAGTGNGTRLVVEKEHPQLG
Method: as §2

T119A = molecular target: T9, T119A; assay: as above
T9 construct: single alanine mutant; also called mutant Nkp30-Fc T119A
T9 Fc fusion chain: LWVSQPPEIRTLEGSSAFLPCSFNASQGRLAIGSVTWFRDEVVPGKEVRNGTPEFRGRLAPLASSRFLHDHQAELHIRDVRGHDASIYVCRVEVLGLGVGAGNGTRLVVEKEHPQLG
Method: as §2

K129A = molecular target: T10, K129A; assay: as above
T10 construct: single alanine mutant; also called mutant Nkp30-Fc K129A
T10 Fc fusion chain: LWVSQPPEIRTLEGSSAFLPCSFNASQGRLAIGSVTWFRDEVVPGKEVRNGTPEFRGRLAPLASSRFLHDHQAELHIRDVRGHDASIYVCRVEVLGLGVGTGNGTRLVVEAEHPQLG
Method: as §2

B1: BGA1833 (antibody, human IgG1, kappa)
heavy: QVQLVQSGAEVKKPGASVKVSCKASGYTFTSSYMHWVRQAPGQGLEWMGEIHPNRDNTNYNEKFKGRVTMTRDTSTSTVYMELSSLRSEDTAVYYCARSYYEYGGAYFDAWGQGTLVTVSSASTKGPSVFPLAPSSKSTSGGTAALGCLVKDYFPEPVTVSWNSGALTSGVHTFPAVLQSSGLYSLSSVVTVPSSSLGTQTYICNVNHKPSNTKVDKKVEPKSCDKTHTCPPCPAPPAAGPSVFLFPPKPKDTLMISRTPEVTCVVVDVSHEDPEVKFNWYVDGVEVHNAKTKPREEQYNSTYRVVSVLTVLHQDWLNGKEYKCKVSNKALAAPIEKTISKAKGQPREPQVYTLPPSRDELTKNQVSLTCLVKGFYPSDIAVEWESNGQPENNYKTTPPVLDSDGSFFLYSKLTVDKSRWQQGNVFSCSVMHEALHNHYTQKSLSLSPGK
light: QIQLTQSPSSLSASVGDRVTITCKASQDVSTAVAWYQQKPGKAPKLLIYAASYRHIGVPSRFSGSGSGTDFTLTISSLQPEDFATYYCQQHYSNPFTFGGGTKVEIKRTVAAPSVFIFPPSDEQLKSGTASVVCLLNNFYPREAKVQWKVDNALQSGNSQESVTEQDSKDSTYSLSSTLTLSKADYEKHKVYACEVTHQGLSSPVTKSFNRGEC
notes: also called BGA1833 (IgG1mf format)
fold lower affinity than the initial antibody (his-tagged human NKp30 [1]): ~10 fold | Kd (his-tagged human NKp30 [2]): 1.92 nM | koff (his-tagged human NKp30 [2]): 0.00278 s⁻¹ | kon (his-tagged human NKp30 [2]): 1.45e+06 M⁻¹ s⁻¹ | EC50 [3]: 1.31 nM | binding result (W20A): binds | binding result (S52A): binds | binding result (E65A): binds | binding result (R109A): binds | binding result (E111A): binds | binding result (V117A): binds | binding result (T119A): binds | binding result (K129A): binds
